Reference: paper PMC7876045

Target: RNAP sigma70 holoenzyme (Esigma70) (Escherichia coli) (UniProt P0A7Z4+P0A8V2+P0A8T7+P0A800+P00579)
Experiment: KMnO4 footprinting
Conditions: 40 mM Tris-HCl pH 8.0, 1 mM DTT, 0.1 mg/ml BSA, 10 mM MgCl2, 50 mM KCl, 37 C (transcription buffer); 150 nM Esigma70, sample mixed 1:1 with 20 mM KMnO4 for …

ACCTCGGTATGCCTTGTGACTGGCTTGACAAGCTTTTCCTCAGCTCCGTAAACTCCTTTCAGTGGGAAATTGTGGGGCAAAGTGGGAATAAGGGGTGAGGCTGGCATGTTCCGGGGAGCAA (double strand) [mraZ promoter (G1p) permanganate template]
binding: binds

ATCGCCAGCGCGCGATGATGTTCCGAAGACTATAAGGCATGTTATAGTCTGGATTATATTGAGGCAAGTCACCCTCCCATTTATTCAGAGTAAAAGTCTATTCTGTGATAAATGGC (double strand) [minC promoter (G1d) permanganate template]
binding: binds
